# Measured values published in publication PMC2878758.
# Changes are numbered by the printed parent chain. In names and notes the source's numbering stands.
# B1: Mss116p (Saccharomyces cerevisiae S288C) (protein)
# chain: NHITWAVSRRLYNDGNRDQRNFGRNQRNNNSNRYRNSRFNSRPRTRSREDDDEVHFDKTTFSKLIHVPKEDNSKEVTLDSLLEEGVLDKEIHKAITRMEFPGLTPVQQKTIKPILSSEDHDVIARAKTGTGKTFAFLIPIFQHLINTKFDSQYMVKAVIVAPTRDLALQIEAEVKKIHDMNYGLKKYACVSLVGGTDFRAAMNKMNKLRPNIVIATPGRLIDVLEKYSNKFFRFVDYKVLDEADRLLEIGFRDDLETISGILNEKNSKSADNIKTLLFSATLDDKVQKLANNIMNKKECLFLDTVDKNEPEAHERIDQSVVISEKFANSIFAAVEHIKKQIKERDSNYKAIIFAPTVKFTSFLCSILKNEFKKDLPILEFHGKITQNKRTSLVKRFKKDESGILVCTDVGARGMDFPNVHEVLQIGVPSELANYIHRIGRTARSGKEGSSVLFICKDELPFVRELEDAKNIVIAKQEKYEPSEEIKSEVLEAVTEEPEDISDIVISLISSYRSCIKEYRFSERRILPEIASTYGVLLNDPQLKIPVSRRFLDKLGLSRSPIGKAMFEIRDYSSRDGNNKSYDYDDDSEISFRGNKNYNNRSQNRDYDDEPFRRSNNNRRSFSRSNDKNNYSSRNSNIY
# B2: Mss116p (Saccharomyces cerevisiae S288C; Q412A) (protein)
# chain: B1 chain with Q386A
# B3: Mss116p (Saccharomyces cerevisiae S288C; T307A) (protein)
# chain: B1 chain with T281A
# B4: Mss116p (Saccharomyces cerevisiae S288C; S305A) (protein)
# chain: B1 chain with S279A
# B5: Mss116p (Saccharomyces cerevisiae S288C; R245E) (protein)
# chain: B1 chain with R219E
# Substrate: Nc1ncnc2c1ncn2[C@@H]1O[C@H](COP(=O)(O)OP(=O)(O)OP(=O)(O)O)[C@@H](O)[C@H]1O
# Experiment: ATPase assay, free ADP versus time, initial velocities
# Assay type: biochemical, Saccharomyces cerevisiae
# Details: 37 °C, saturating aI5β intron RNA transcript
Protein,Km,kcat
B1,167 ± 20 µM,0.496 ± 0.0603 s⁻¹
B2,177 ± 33 µM,0.393 ± 0.0933 s⁻¹
B3,180 ± 4 µM,0.061 ± 0.0045 s⁻¹
B4,162 ± 16 µM,0.322 ± 0.142 s⁻¹
B5,554 ± 153 µM,"8.18 ± 0.08 ^e^, ^f"
